Results from article PMC10803776 (2024).

Target: Mycobacterium tuberculosis DnaK, wild type, full length (Mycobacterium tuberculosis, UniProt P9WMJ9 1-625)
Test: ITC

B1: Mycobacterium tuberculosis GrpE, wild type, full length (natural protein)
chain: MTDGNQKPDGNSGEQVTVTDKRRIDPETGEVRHVPPGDMPGGTAAADAAHTEDKVAELTADLQRVQADFANYRKRALRDQQAAADRAKASVVSQLLGVLDDLERARKHGDLESGPLKSVADKLDSALTGLGLVAFGAEGEDFDPVLHEAVQHEGDGGQGSKPVIGTVMRQGYQLGEQVLRHALVGVVDTVVVDAAELESVDDGTAVADTAENDQADQGNSADTSGEQAESEPSGS
B1 was tested, and the Kd was 360 nM.
